From US20240207319A1 (LUDWIG INSTITUTE FOR CANCER RESEARCH, published 2024)

Target: human PDL1 protein (plate-coated) (human, UniProt Q9NZQ7 19-238, limits assumed)
Test: titration ELISA, soluble monomeric decoy on plates coated with human PDL1 protein, anti-His tag detection
Procedure: FIGS. 9A, 9B, 9C, and 9D are a set of diagrams showing characterization of PD-1 decoy variants and hCD8+ T cells transduced with the PD-1 decoy variants and tEGFR. […] Bound PD1 decoy molecules were detected with an anti-His tag antibody. […] The engineered T cells were co-cultured at a 1:1 ratio with different PD-L1⁺ target tumor cells (100,000 of each cell type) for 48 hours. NA8 and HLA/A2+NY-ESO-1−, SAOS2, and A375 are HLA/A2+ NY-ESO-1+. The supernatants were collected after 48 hours, diluted 1 in 25, and evaluated for the presence of IFNγ using a commercial ELISA kit from Thermo). […] CD8 T cells engineered with PD1 decoy_tEGFR retrovirus were labeled with chromium. The engineered T cells were co-cultured with anti-EGFR Ab and co-cultured with different ratios of PBMCs from the same donor. The negative control is NT (non-transduced) T cells Killing evaluated at 4 hours. As positive control, T cells were treated with HCl.

human PDL1 protein (plate-coated), sequence (Q9NZQ7 19-238 limits assumed): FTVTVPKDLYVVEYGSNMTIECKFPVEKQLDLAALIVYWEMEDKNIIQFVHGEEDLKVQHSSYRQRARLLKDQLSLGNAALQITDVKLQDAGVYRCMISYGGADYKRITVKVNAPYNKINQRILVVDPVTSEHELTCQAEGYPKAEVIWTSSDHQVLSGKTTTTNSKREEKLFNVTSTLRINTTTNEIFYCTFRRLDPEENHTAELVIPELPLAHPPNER

Row | Binder | fold better binding than the WT PD1 decoy [fold]
1 | PD1_4XMUT_M70 (with 6xHis), soluble monomeric PD1 decoy variant (bacterial production) (receptor) MASDSPDRPWNPPTFSPALLVVTEGDNATFTCSFSNTSESFVLNWYRMSPSNQDDRLAAFPEDRSQPGQDARFRVTQLPNGRDFHMSVVRARRNDSGTYFCGAISLAPKAKIKESLRAELRVTERRALEHHHHHH | 10
2 | PD1_6XDM (with 6xHis), soluble monomeric PD1 decoy variant (bacterial production) (receptor, also called 6×DM; variant 6×DM) MASDSPDRPWNPPTFSPALLVVTEGDNATFTCSFSNTSESFVLNWYRMSPSNQVDRLAAFPEDRSQPGQDARFRVTQLPNGRDFHMSVVRARRNDSGTYFCGAISLAPKWKIKESLRAELRVTERRALEHHHHHH | ~7.5
